# T1: MICA protein (SPR analyte) (human, UniProt Q29983 24-308, limits assumed)
# T1 construct: also called major histocompatibility complex class I chain related polypeptide A
# T1 sequence: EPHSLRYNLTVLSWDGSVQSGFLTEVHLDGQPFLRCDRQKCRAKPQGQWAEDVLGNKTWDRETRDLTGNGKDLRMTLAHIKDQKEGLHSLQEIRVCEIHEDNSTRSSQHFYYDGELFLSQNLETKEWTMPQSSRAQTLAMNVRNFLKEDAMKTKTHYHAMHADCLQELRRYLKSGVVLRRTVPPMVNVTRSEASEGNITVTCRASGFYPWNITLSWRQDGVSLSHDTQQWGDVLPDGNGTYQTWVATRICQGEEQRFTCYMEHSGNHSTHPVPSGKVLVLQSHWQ
# T2: MICA on human tumor cells (A-375, A549, HCT-15, MDA-MB-231) (human, UniProt Q29983 24-383)
# T2 construct: whole, on cells
# T2 sequence (looked up): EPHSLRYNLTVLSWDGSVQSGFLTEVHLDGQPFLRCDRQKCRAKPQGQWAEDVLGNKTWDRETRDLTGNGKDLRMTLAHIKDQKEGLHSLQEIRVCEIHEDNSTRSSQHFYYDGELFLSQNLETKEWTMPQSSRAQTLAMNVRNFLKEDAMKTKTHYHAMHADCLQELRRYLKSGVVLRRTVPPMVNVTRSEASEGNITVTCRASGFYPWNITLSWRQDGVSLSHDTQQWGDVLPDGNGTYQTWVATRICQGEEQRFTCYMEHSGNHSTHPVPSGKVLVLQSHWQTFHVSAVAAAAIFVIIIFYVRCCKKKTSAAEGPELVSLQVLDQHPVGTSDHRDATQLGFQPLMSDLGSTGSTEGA
# B1: affinity maturation antibody h5A1002 (antibody, V domains shown)
# VH: QVQLQESGPGLVKPSETLSLTCTVSGFSLTTYGGHWIRQPPGKGLEWIGMIWTDGWTDYNAAFISRVTISVDTSKNQFSLKLSSVTAADTAVYYCARKGHGYYYAMDYWGQGTLVTVSS
# VL: EIVLTQSPGTLSLSPGERATLSCTASSSVSSSYLHWYQQKPGQAPRLLIYSTSNLISGIPDRFSGSGSGTDFTLTISRLEPEDFAVYYCHQYHRSPFTFGQGTKLEIKR
# notes: Human IgG1, kappa; also called h5A1002-hIgG1
# How the values were obtained:
# [1] = biological target: T1, MICA protein (SPR analyte); test: SPR, Biacore 8K
# Procedure: In a Biacore 8K (Cytiva) system, the antibody was diluted to a concentration of 10 µg/mL with running buffer (HBS-EP), and the antibody was conjugated onto a protein A (Cytiva, 29127556) chip at a flow rate of […].
# Kinetic and affinity data of binding of the maternal antibody h5A1 and the affinity maturation antibody h5A1002 and MICA were detected.
# MICA004α3-Fc = biological target: T3, MICA004α3-Fc (human); test: ELISA on coated MICA*004 α3-Fc (1 µg/ml), HRP anti-human Fab secondary, OD450
# T3 construct: also called MICA*004-Fc; domain α3 of MICA-004 Fc fusion protein
# T3 sequence (chain, as listed by the source limits assumed): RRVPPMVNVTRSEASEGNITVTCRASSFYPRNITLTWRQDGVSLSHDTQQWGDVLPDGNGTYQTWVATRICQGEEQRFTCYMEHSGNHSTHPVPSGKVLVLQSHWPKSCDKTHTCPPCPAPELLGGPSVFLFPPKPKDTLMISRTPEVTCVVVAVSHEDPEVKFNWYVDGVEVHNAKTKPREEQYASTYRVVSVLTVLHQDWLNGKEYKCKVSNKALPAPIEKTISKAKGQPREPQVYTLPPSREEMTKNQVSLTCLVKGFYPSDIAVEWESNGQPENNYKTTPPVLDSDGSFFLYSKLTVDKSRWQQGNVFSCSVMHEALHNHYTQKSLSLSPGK
# [2] = biological target: T2, MICA on human tumor cells (A-375, A549, …); test: flow cytometry on A-375 cells, Alexa-647 goat anti-human secondary, average fluorescence intensity
# Procedure: (§1) (1) Tumor cells were diluted to a density of 2×10⁶/mL with PBS and then added into a 1.5 ml EP tube in a volume of 100 l/tube. 10 l/tube of goat serum was added into the EP tube; and blocking was conducted at 4° C. for 30 min. Antibody h5A1 (having a heavy chain sequence as set forth in SEQ ID NO: 11 and a light chain sequence as set forth in SEQ ID NO: 12), antibody h5A1002 (having a heavy chain sequence as set forth in SEQ ID NO: 13 and a light chain sequence as set forth in SEQ ID NO: 14), and control IgG1 (purchased from Biointron) were gradient-diluted (at a highest working concentration of 50 μg/ml, 10 gradients, diluted by 3 times for each gradient) and added. The tube was incubated at 4° C. for 30 min. 1 mL of PBS was added into the EP tube, and centrifugation was conducted 4° C. at a rate of 3,500 rpm for 5 min. The supernatant was removed. The EP tube was washed once with the PBS. The supernatant was removed after centrifugation. The cells were resuspended with PBS in a volume of 100 l/tube. An Alexa-647 labeled goat anti-human secondary antibody (purchased from Jackson lab) was added into the tube in a volume of 1 l/tube; and the plate was incubated in the dark at 4° C. for 30 min. The tube was washed twice with PBS, and the supernatant was removed after centrifugation. […]
# [3] = biological target: T2, MICA on human tumor cells (A-375, A549, …); test: flow cytometry on HCT-15 cells, Alexa-647 goat anti-human secondary, average fluorescence intensity
# Procedure: as §1
binder,measurement,setting,value
B1,fold increase of affinity against maternal antibody h5A1,[1],~39 times
same,EC50 (read off the curve),MICA004α3-Fc,~0.04 µg/mL
same,EC50 (read off the curve),[2],~2 µg/mL
same,EC50 (read off the curve),[3],~1 µg/mL
